How the values were obtained:
Test in all cases: holdup assay
Parameters in all cases: key: below the threshold = too weak to quantify, mostly under pKd 3.1 to 4
PDZD7_3, Q9H5P4 = target: T1, PDZD7_3, Q9H5P4
T1 sequence (Q9H5P4 857-944, limits assumed, looked up): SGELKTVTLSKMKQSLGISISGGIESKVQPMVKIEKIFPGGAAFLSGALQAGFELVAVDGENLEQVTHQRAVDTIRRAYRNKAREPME

PDZD2_2, O15018 = target: T2, PDZD2_2, O15018
T2 sequence (O15018 329-429, limits assumed, looked up): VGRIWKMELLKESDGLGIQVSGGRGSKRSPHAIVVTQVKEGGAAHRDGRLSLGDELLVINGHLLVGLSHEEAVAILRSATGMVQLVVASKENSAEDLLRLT

GRIP1_5, Q9Y3R0 = target: T3, GRIP1_5, Q9Y3R0
T3 sequence (Q9Y3R0 568-668, limits assumed, looked up): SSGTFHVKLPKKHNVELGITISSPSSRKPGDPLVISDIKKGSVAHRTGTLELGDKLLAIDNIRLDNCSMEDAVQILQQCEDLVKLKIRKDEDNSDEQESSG

IL16_3, Q14005 = target: IL16_3, Q14005
Sequence of IL16_3, Q14005 (Q14005 1107-1207): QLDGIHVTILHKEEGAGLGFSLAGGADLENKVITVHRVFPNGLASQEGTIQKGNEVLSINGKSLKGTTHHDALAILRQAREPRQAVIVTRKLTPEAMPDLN

Inadl_5, Q8NI35 = target: Inadl_5, Q8NI35
Sequence of Inadl_5, Q8NI35 (Q8NI35 673-780): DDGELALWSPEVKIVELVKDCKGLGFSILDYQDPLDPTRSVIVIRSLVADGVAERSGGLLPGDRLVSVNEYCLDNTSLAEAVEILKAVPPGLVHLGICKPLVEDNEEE

TJP1_3, Q07157 = target: TJP1_3, Q07157
Sequence of TJP1_3, Q07157 (Q07157 416-512): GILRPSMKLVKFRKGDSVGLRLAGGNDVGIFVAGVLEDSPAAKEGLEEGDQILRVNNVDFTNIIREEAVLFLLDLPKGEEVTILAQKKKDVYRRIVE

LIMK2, P53671 = target: LIMK2, P53671
Sequence of LIMK2, P53671 (P53671 143-248): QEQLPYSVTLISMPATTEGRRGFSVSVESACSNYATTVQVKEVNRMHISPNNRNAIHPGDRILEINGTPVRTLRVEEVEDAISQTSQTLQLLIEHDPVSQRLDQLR

HTRA1, Q92743 = target: HTRA1, Q92743
Sequence of HTRA1, Q92743 (Q92743 360-477): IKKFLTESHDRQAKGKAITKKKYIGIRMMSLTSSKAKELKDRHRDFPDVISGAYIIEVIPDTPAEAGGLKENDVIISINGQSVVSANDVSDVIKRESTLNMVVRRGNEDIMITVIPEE

FRMPD2_3, Q68DX3 = target: FRMPD2_3, Q68DX3
Sequence of FRMPD2_3, Q68DX3 (Q68DX3 1073-1166): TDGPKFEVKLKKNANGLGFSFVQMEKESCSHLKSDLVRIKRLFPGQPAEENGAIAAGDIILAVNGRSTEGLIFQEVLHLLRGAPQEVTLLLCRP

SIPA1L2, Q9P2F8 = target: T4, SIPA1L2, Q9P2F8
T4 sequence (Q9P2F8 945-1036, limits assumed, looked up): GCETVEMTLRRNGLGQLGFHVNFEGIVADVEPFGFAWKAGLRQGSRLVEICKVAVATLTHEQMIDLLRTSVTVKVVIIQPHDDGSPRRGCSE

LNX1_2, Q8TBB1 = target: LNX1_2, Q8TBB1
Sequence of LNX1_2, Q8TBB1 (Q8TBB1 371-470): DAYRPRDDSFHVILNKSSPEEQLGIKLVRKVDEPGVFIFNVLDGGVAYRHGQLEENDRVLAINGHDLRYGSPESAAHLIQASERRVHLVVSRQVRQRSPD

GORASP1, Q9BQQ3 = target: GORASP1, Q9BQQ3
Sequence of GORASP1, Q9BQQ3 (Q9BQQ3 1-208): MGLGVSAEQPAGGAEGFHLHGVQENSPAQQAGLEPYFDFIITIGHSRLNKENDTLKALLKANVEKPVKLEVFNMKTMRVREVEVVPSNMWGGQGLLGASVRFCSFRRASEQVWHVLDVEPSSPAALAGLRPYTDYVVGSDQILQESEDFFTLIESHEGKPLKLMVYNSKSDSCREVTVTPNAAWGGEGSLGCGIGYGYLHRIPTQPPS

SNTG2, Q9NY99 = target: T5, SNTG2, Q9NY99
T5 sequence (Q9NY99 68-166, limits assumed, looked up): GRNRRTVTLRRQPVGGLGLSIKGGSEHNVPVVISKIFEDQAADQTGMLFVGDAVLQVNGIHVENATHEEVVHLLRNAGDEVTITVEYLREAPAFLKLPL

HTRA3, P83110 = target: T6, HTRA3, P83110
T6 sequence (P83110 354-453, limits assumed, looked up): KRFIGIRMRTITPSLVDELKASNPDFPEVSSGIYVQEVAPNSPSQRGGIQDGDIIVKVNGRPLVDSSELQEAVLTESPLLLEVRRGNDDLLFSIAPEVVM

DLG3_2, Q92796 = target: T7, DLG3_2, Q92796
T7 sequence (Q92796 221-321, limits assumed, looked up): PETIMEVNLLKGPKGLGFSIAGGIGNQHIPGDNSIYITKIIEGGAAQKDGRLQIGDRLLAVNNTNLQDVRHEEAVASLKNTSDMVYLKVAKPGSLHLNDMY

TJP3_3, O95049 = target: T8, TJP3_3, O95049
T8 sequence (O95049 375-456, limits assumed, looked up): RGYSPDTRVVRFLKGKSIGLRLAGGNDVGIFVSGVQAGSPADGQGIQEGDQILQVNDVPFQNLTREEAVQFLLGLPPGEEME

HTRA2, O43464 = target: HTRA2, O43464
Sequence of HTRA2, O43464 (O43464 355-458): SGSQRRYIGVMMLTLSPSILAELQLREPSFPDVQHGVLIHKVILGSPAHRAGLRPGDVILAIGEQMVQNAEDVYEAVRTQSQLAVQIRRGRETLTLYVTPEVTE

APBA3_1, O96018 = target: T9, APBA3_1, O96018
T9 sequence (O96018 389-490, limits assumed, looked up): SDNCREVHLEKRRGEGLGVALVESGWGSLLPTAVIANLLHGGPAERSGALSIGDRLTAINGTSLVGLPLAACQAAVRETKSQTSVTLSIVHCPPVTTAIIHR

MAGI2_6, Q86UL8 = target: MAGI2_6, Q86UL8
Sequence of MAGI2_6, Q86UL8 (Q86UL8 1141-1229): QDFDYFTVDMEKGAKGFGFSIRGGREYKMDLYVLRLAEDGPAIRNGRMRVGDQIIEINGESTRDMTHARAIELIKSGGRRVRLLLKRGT

Inadl_3, Q8NI35 = target: Inadl_3, Q8NI35
Sequence of Inadl_3, Q8NI35 (Q8NI35 359-469): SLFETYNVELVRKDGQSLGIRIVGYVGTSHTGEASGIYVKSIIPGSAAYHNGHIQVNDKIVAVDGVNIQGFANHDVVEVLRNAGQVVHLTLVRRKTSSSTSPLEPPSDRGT

GRIP2_7, Q9C0E4 = target: GRIP2_7, Q9C0E4
Sequence of GRIP2_7, Q9C0E4 (Q9C0E4 934-1023): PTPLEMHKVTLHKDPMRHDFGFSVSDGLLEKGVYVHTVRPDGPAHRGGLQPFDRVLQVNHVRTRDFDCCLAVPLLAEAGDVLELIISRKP

FRMPD4, Q14CM0 = target: FRMPD4, Q14CM0
Sequence of FRMPD4, Q14CM0 (Q14CM0 67-160): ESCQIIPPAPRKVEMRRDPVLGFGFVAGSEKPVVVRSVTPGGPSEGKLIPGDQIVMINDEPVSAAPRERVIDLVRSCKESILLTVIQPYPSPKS

FRMPD1, Q5SYB0 = target: T10, FRMPD1, Q5SYB0
T10 sequence (Q5SYB0 52-145, limits assumed, looked up): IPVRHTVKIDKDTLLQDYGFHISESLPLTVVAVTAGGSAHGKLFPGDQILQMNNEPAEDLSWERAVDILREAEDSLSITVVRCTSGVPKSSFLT

MAGI2_2, Q86UL8 = target: MAGI2_2, Q86UL8
Sequence of MAGI2_2, Q86UL8 (Q86UL8 410-522): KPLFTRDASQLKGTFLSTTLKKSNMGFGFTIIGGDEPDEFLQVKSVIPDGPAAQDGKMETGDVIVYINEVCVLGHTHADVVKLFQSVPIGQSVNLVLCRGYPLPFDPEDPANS

GRIP1_4, Q9Y3R0 = target: T11, GRIP1_4, Q9Y3R0
T11 sequence (Q9Y3R0 467-571, limits assumed, looked up): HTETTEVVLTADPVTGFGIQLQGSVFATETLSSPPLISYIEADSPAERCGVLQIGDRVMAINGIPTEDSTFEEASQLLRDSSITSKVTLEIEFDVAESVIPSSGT

NHERF4_4, Q86UT5 = target: NHERF4_4, Q86UT5
Sequence of NHERF4_4, Q86UT5 (Q86UT5 464-550): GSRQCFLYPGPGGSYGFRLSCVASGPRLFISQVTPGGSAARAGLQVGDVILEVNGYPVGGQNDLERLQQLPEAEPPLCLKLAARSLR

[1] = plain residues with an end cap or a label only (N-terminal biotin on a linker: ttds)
[2] = plain residues with an end cap or a label only (N-terminal biotin on a linker: ahx)

Measured: pKd

KKYVDAETSL [SLC4A7, Q9Y6M7]
4.33: SNTG2, Q9NY99; [1]
4.4: FRMPD4, Q14CM0; [1]
below the threshold: IL16_3, Q14005; [1] | Inadl_5, Q8NI35; [1] | TJP1_3, Q07157; [1] | LIMK2, P53671; [1] | FRMPD2_3, Q68DX3; [1] | SIPA1L2, Q9P2F8; [1] | LNX1_2, Q8TBB1; [1] | GORASP1, Q9BQQ3; [1] | HTRA3, P83110; [1] | TJP3_3, O95049; [1] | HTRA2, O43464; [1] | APBA3_1, O96018; [1] | Inadl_3, Q8NI35; [1] | GRIP2_7, Q9C0E4; [1] | FRMPD1, Q5SYB0; [1] | GRIP1_4, Q9Y3R0; [1] | NHERF4_4, Q86UT5; [1]
3.91: DLG3_2, Q92796; [1]
3.68: MAGI2_6, Q86UL8; [1]
4.06: PDZD2_2, O15018; [1]
3.77: PDZD7_3, Q9H5P4; [1] | MAGI2_2, Q86UL8; [1]
3.53: GRIP1_5, Q9Y3R0; [1]
3.71: HTRA1, Q92743; [1]

ESLLLGPSNF [SHROOM4, Q9ULL8]
3.59: Inadl_3, Q8NI35; [2]
below the threshold: PDZD7_3, Q9H5P4; [2] | PDZD2_2, O15018; [2] | GRIP1_5, Q9Y3R0; [2] | IL16_3, Q14005; [2] | Inadl_5, Q8NI35; [2] | TJP1_3, Q07157; [2] | LIMK2, P53671; [2] | HTRA1, Q92743; [2] | FRMPD2_3, Q68DX3; [2] | SIPA1L2, Q9P2F8; [2] | LNX1_2, Q8TBB1; [2] | GORASP1, Q9BQQ3; [2] | SNTG2, Q9NY99; [2] | HTRA3, P83110; [2] | DLG3_2, Q92796; [2] | TJP3_3, O95049; [2] | HTRA2, O43464; [2] | APBA3_1, O96018; [2] | MAGI2_6, Q86UL8; [2] | GRIP2_7, Q9C0E4; [2] | FRMPD4, Q14CM0; [2] | FRMPD1, Q5SYB0; [2] | MAGI2_2, Q86UL8; [2] | GRIP1_4, Q9Y3R0; [2] | NHERF4_4, Q86UT5; [2]

RHTTSTETAV [HPV30-E6, P36809]
3.73: HTRA1, Q92743; [1]
3.77: Inadl_3, Q8NI35; [1]
5.04: MAGI2_2, Q86UL8; [1]
3.67: LNX1_2, Q8TBB1; [1]
3.84: GRIP2_7, Q9C0E4; [1]
3.85: LIMK2, P53671; [1]
4.19: MAGI2_6, Q86UL8; [1]
4.67: SNTG2, Q9NY99; [1]
5.41: DLG3_2, Q92796; [1]
4.1: PDZD7_3, Q9H5P4; [1]
3.87: FRMPD2_3, Q68DX3; [1]
4.42: PDZD2_2, O15018; [1]
below the threshold: GRIP1_5, Q9Y3R0; [1] | IL16_3, Q14005; [1] | Inadl_5, Q8NI35; [1] | TJP1_3, Q07157; [1] | SIPA1L2, Q9P2F8; [1] | GORASP1, Q9BQQ3; [1] | HTRA3, P83110; [1] | TJP3_3, O95049; [1] | HTRA2, O43464; [1] | APBA3_1, O96018; [1] | FRMPD4, Q14CM0; [1] | FRMPD1, Q5SYB0; [1] | GRIP1_4, Q9Y3R0; [1] | NHERF4_4, Q86UT5; [1]

SDSSGQEYSL [KCTD3, Q9Y597]
4.69: FRMPD4, Q14CM0; [2]
3.98: HTRA1, Q92743; [2]
below the threshold: PDZD7_3, Q9H5P4; [2] | PDZD2_2, O15018; [2] | GRIP1_5, Q9Y3R0; [2] | IL16_3, Q14005; [2] | Inadl_5, Q8NI35; [2] | TJP1_3, Q07157; [2] | LIMK2, P53671; [2] | FRMPD2_3, Q68DX3; [2] | SIPA1L2, Q9P2F8; [2] | LNX1_2, Q8TBB1; [2] | GORASP1, Q9BQQ3; [2] | SNTG2, Q9NY99; [2] | HTRA3, P83110; [2] | DLG3_2, Q92796; [2] | TJP3_3, O95049; [2] | HTRA2, O43464; [2] | APBA3_1, O96018; [2] | MAGI2_6, Q86UL8; [2] | Inadl_3, Q8NI35; [2] | GRIP2_7, Q9C0E4; [2] | FRMPD1, Q5SYB0; [2] | MAGI2_2, Q86UL8; [2] | GRIP1_4, Q9Y3R0; [2] | NHERF4_4, Q86UT5; [2]

DKDPHSETAL [TMIGD1, Q6UXZ0]
3.73: PDZD2_2, O15018; [1]
below the threshold: GRIP1_5, Q9Y3R0; [1] | IL16_3, Q14005; [1] | Inadl_5, Q8NI35; [1] | TJP1_3, Q07157; [1] | LIMK2, P53671; [1] | HTRA1, Q92743; [1] | FRMPD2_3, Q68DX3; [1] | SIPA1L2, Q9P2F8; [1] | LNX1_2, Q8TBB1; [1] | GORASP1, Q9BQQ3; [1] | HTRA3, P83110; [1] | DLG3_2, Q92796; [1] | HTRA2, O43464; [1] | APBA3_1, O96018; [1] | Inadl_3, Q8NI35; [1] | GRIP2_7, Q9C0E4; [1] | FRMPD1, Q5SYB0; [1] | GRIP1_4, Q9Y3R0; [1] | NHERF4_4, Q86UT5; [1]
4.07: PDZD7_3, Q9H5P4; [1]
3.49: TJP3_3, O95049; [1]
3.79: MAGI2_6, Q86UL8; [1]
4.34: FRMPD4, Q14CM0; [1]
3.63: MAGI2_2, Q86UL8; [1]
4.06: SNTG2, Q9NY99; [1]

Source: PMC9482650, “Quantitative fragmentomics allow affinity mapping of interactomes” (Nature Communications, 2022)
